Test results reported in the supplement of paper PMC9112550, “Optimization of the antimicrobial peptide Bac7 by deep mutational scanning” (BMC Biology, 2022).

system: Escherichia coli TOP10; assay: shrunken log2 fold change of peptide-encoding DNA abundance (4.5 h post-induction vs induction); higher = less antimicrobial activity (less host growth inhibition); conditions: time post-induction: 4.5 h; library: site-saturation at positions 5, 18, 19, 20
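Further: peptides expressed intracellularly from a pBAD plasmid library in pooled LB shake-flask culture, induced with 0.3% L-arabinose, DNA abundance read by NGS, three biological replicates, DESeq2 with apeglm shrinkage.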

| Sequence | shrunken log2 fold change |
| --- | --- |
| RRIRQRPPRLPRPRPRPILMPRP | 0.0271 |
| RRIRNRPPRLPRPRPRPLSTPRP | 0.0462 |
| RRIRMRPPRLPRPRPRPYRFPRP | -0.118 |
| RRIRNRPPRLPRPRPRPMIMPRP | -1.96 |
| RRIRARPPRLPRPRPRPLNCPRP | -0.08 |
| RRIRFRPPRLPRPRPRPIFVPRP | 0.108 |
| RRIRWRPPRLPRPRPRPRAMPRP | 0.363 |
| RRIRTRPPRLPRPRPRPGNMPRP | -0.0393 |
| RRIRERPPRLPRPRPRPRYQPRP | -0.227 |
| RRIRLRPPRLPRPRPRPRKEPRP | 0.325 |
| RRIRRRPPRLPRPRPRPAPHPRP | 0.858 |
| RRIRDRPPRLPRPRPRPHAIPRP | -0.0018 |
| RRIRMRPPRLPRPRPRPAAIPRP | 0.456 |
| RRIRQRPPRLPRPRPRPVYEPRP | -0.0143 |
| RRIRYRPPRLPRPRPRPPQCPRP | -0.32 |
| RRIRGRPPRLPRPRPRPVGYPRP | 0.295 |
| RRIRERPPRLPRPRPRPDSLPRP | -0.391 |
| RRIRARPPRLPRPRPRPMKCPRP | -0.0407 |
| RRIRIRPPRLPRPRPRPKHAPRP | -0.126 |
| RRIRIRPPRLPRPRPRPGRSPRP | 0.0764 |
| RRIRSRPPRLPRPRPRPWWRPRP | -0.0239 |
| RRIRKRPPRLPRPRPRPPGWPRP | 0.675 |
| RRIRYRPPRLPRPRPRPSHLPRP | -0.286 |
| RRIRKRPPRLPRPRPRPTNLPRP | -0.0903 |
| RRIRTRPPRLPRPRPRPSEVPRP | 0.0146 |

| Sequence | shrunken log2 fold change |
| --- | --- |
| RRIRVRPPRLPRPRPRPTPFPRP | 0.279 |
| RRIRTRPPRLPRPRPRPMEIPRP | -0.00196 |
| RRIRHRPPRLPRPRPRPWIFPRP | -0.332 |
| RRIRGRPPRLPRPRPRPDTTPRP | 0.903 |
| RRIRCRPPRLPRPRPRPDCDPRP | -0.812 |
| RRIRLRPPRLPRPRPRPCQAPRP | 0.0641 |
| RRIRFRPPRLPRPRPRPPVVPRP | 0.159 |
| RRIRHRPPRLPRPRPRPVFAPRP | 0.12 |
| RRIRTRPPRLPRPRPRPCEEPRP | 0.0871 |
| RRIRKRPPRLPRPRPRPSSWPRP | 0.147 |
| RRIRRRPPRLPRPRPRPGNMPRP | -0.266 |
| RRIRARPPRLPRPRPRPRWFPRP | 0.623 |
| RRIRIRPPRLPRPRPRPFSEPRP | -0.315 |
| RRIRARPPRLPRPRPRPWFFPRP | 0.089 |
| RRIRERPPRLPRPRPRPCCKPRP | -0.267 |
| RRIRVRPPRLPRPRPRPHAKPRP | 0.0066 |
| RRIRVRPPRLPRPRPRPYDMPRP | -0.382 |
| RRIRQRPPRLPRPRPRPQVKPRP | -0.101 |
| RRIRVRPPRLPRPRPRPDKNPRP | -0.12 |
| RRIRERPPRLPRPRPRPADKPRP | -0.187 |
| RRIRFRPPRLPRPRPRPWGMPRP | -0.171 |
| RRIRYRPPRLPRPRPRPVTAPRP | -0.298 |
| RRIRERPPRLPRPRPRPGVFPRP | 0.248 |
| RRIRRRPPRLPRPRPRPIARPRP | 0.0248 |
| RRIRHRPPRLPRPRPRPWSEPRP | 0.00408 |

| Sequence | shrunken log2 fold change |
| --- | --- |
| RRIRGRPPRLPRPRPRPVLIPRP | 0.223 |
| RRIRGRPPRLPRPRPRPWEMPRP | 0.0928 |
| RRIRWRPPRLPRPRPRPYNPPRP | -1.48 |
| RRIRERPPRLPRPRPRPAHQPRP | -0.136 |
| RRIRCRPPRLPRPRPRPGGQPRP | -0.218 |
| RRIRPRPPRLPRPRPRPQAVPRP | 0.0933 |
| RRIRFRPPRLPRPRPRPPGSPRP | 0.238 |
| RRIRARPPRLPRPRPRPVNLPRP | 0.0654 |
| RRIRDRPPRLPRPRPRPVKNPRP | -0.0293 |
| RRIRFRPPRLPRPRPRPYLLPRP | -1.11 |
| RRIRQRPPRLPRPRPRPAFMPRP | -0.0902 |
| RRIRGRPPRLPRPRPRPEPLPRP | 0.341 |
| RRIRLRPPRLPRPRPRPYQCPRP | -0.373 |
| RRIRARPPRLPRPRPRPGKPPRP | 0.154 |
| RRIRERPPRLPRPRPRPEPWPRP | 0.0721 |
| RRIRERPPRLPRPRPRPCRPPRP | -0.00126 |
| RRIRDRPPRLPRPRPRPKEAPRP | -0.0217 |
| RRIRYRPPRLPRPRPRPSDGPRP | -0.327 |
| RRIRLRPPRLPRPRPRPLQFPRP | 0.0239 |
| RRIRPRPPRLPRPRPRPQAKPRP | 0.277 |
| RRIRKRPPRLPRPRPRPSAVPRP | 0.0941 |
| RRIRERPPRLPRPRPRPQVTPRP | -0.118 |
| RRIRCRPPRLPRPRPRPCHLPRP | -0.206 |
| RRIRYRPPRLPRPRPRPQCWPRP | -0.321 |
| RRIRKRPPRLPRPRPRPWILPRP | -0.14 |

| Sequence | shrunken log2 fold change |
| --- | --- |
| RRIRKRPPRLPRPRPRPMKPPRP | 0.145 |
| RRIRYRPPRLPRPRPRPAAKPRP | 0.152 |
| RRIRKRPPRLPRPRPRPITVPRP | 0.0944 |
| RRIRMRPPRLPRPRPRPMGRPRP | -0.0209 |
| RRIRNRPPRLPRPRPRPIVGPRP | 0.003 |
| RRIRSRPPRLPRPRPRPYMWPRP | -0.744 |
| RRIRFRPPRLPRPRPRPQPAPRP | 0.652 |
| RRIRIRPPRLPRPRPRPRMMPRP | -0.293 |
| RRIRPRPPRLPRPRPRPPYTPRP | -0.232 |
| RRIRARPPRLPRPRPRPICQPRP | 0.216 |
| RRIRDRPPRLPRPRPRPRTYPRP | -0.126 |
| RRIRRRPPRLPRPRPRPPFGPRP | 0.453 |
| RRIRGRPPRLPRPRPRPYCAPRP | -0.119 |
| RRIRSRPPRLPRPRPRPTHYPRP | -0.125 |
| RRIRSRPPRLPRPRPRPNRVPRP | -0.048 |
| RRIRFRPPRLPRPRPRPTHKPRP | -0.0458 |
| RRIRQRPPRLPRPRPRPTREPRP | -0.081 |
| RRIRDRPPRLPRPRPRPWTTPRP | -0.0204 |
| RRIRWRPPRLPRPRPRPQYSPRP | -0.653 |
| RRIRMRPPRLPRPRPRPWSGPRP | -0.0411 |
| RRIRYRPPRLPRPRPRPSNHPRP | -0.29 |
| RRIRIRPPRLPRPRPRPLKDPRP | -0.0958 |
| RRIRDRPPRLPRPRPRPYRDPRP | -0.444 |
| RRIRKRPPRLPRPRPRPGGCPRP | 0.809 |
| RRIRMRPPRLPRPRPRPKFSPRP | 0.0925 |

| Sequence | shrunken log2 fold change |
| --- | --- |
| RRIRERPPRLPRPRPRPFGYPRP | -0.0787 |
| RRIRPRPPRLPRPRPRPRQPPRP | 0.113 |
| RRIRKRPPRLPRPRPRPSLHPRP | 0.0624 |
| RRIRIRPPRLPRPRPRPYARPRP | -1.22 |
| RRIRVRPPRLPRPRPRPVAAPRP | 0.368 |
| RRIRRRPPRLPRPRPRPAIDPRP | 0.193 |
| RRIRSRPPRLPRPRPRPFYDPRP | -0.254 |
| RRIRMRPPRLPRPRPRPVAQPRP | 0.963 |
| RRIRKRPPRLPRPRPRPTVNPRP | 0.402 |
| RRIRERPPRLPRPRPRPDLPPRP | -0.156 |
| RRIRWRPPRLPRPRPRPSLPPRP | -0.133 |
| RRIRARPPRLPRPRPRPEKWPRP | 0.244 |
| RRIRDRPPRLPRPRPRPCILPRP | 1.16 |
| RRIRERPPRLPRPRPRPQDSPRP | -0.222 |
| RRIRRRPPRLPRPRPRPLNLPRP | 0.0248 |
| RRIRNRPPRLPRPRPRPSGSPRP | -0.0937 |
| RRIRIRPPRLPRPRPRPSGFPRP | -0.175 |
| RRIRQRPPRLPRPRPRPHFWPRP | -0.0983 |
| RRIRHRPPRLPRPRPRPGFDPRP | 0.105 |
| RRIRYRPPRLPRPRPRPSGWPRP | -0.00312 |
| RRIRQRPPRLPRPRPRPWLNPRP | -0.0662 |
| RRIRVRPPRLPRPRPRPTYHPRP | 1.5 |
| RRIRERPPRLPRPRPRPSPPPRP | -0.013 |
| RRIRSRPPRLPRPRPRPKSEPRP | 0.0504 |
| RRIRMRPPRLPRPRPRPWWYPRP | -1.27 |

| Sequence | shrunken log2 fold change |
| --- | --- |
| RRIRVRPPRLPRPRPRPISDPRP | -0.0883 |
| RRIRFRPPRLPRPRPRPCSKPRP | -0.152 |
| RRIRQRPPRLPRPRPRPYWDPRP | -0.192 |
| RRIRVRPPRLPRPRPRPLDGPRP | -0.267 |
| RRIRIRPPRLPRPRPRPIHAPRP | -0.00674 |
| RRIRYRPPRLPRPRPRPVTIPRP | -0.0242 |
| RRIRGRPPRLPRPRPRPSGAPRP | 0.688 |
| RRIRNRPPRLPRPRPRPDENPRP | 0.00254 |
| RRIRCRPPRLPRPRPRPERSPRP | 0.0846 |
| RRIRSRPPRLPRPRPRPWLMPRP | -0.156 |
| RRIRFRPPRLPRPRPRPAIQPRP | -0.102 |
| RRIRTRPPRLPRPRPRPQVWPRP | 0.112 |
| RRIRTRPPRLPRPRPRPREIPRP | 0.00997 |
| RRIRNRPPRLPRPRPRPPSGPRP | -0.0646 |
| RRIRDRPPRLPRPRPRPLLKPRP | 0.437 |
| RRIRNRPPRLPRPRPRPRTEPRP | -0.279 |
| RRIRTRPPRLPRPRPRPTMWPRP | -0.0407 |
| RRIRGRPPRLPRPRPRPCRNPRP | 0.0316 |
| RRIRNRPPRLPRPRPRPQTWPRP | -0.183 |
| RRIRYRPPRLPRPRPRPTWHPRP | -0.349 |
| RRIRDRPPRLPRPRPRPYHAPRP | -0.0316 |
| RRIRNRPPRLPRPRPRPNCCPRP | -0.124 |
| RRIRKRPPRLPRPRPRPDFEPRP | 0.0238 |
| RRIRLRPPRLPRPRPRPDPFPRP | -0.228 |
| RRIRRRPPRLPRPRPRPTRQPRP | 1.33 |
